The text below walks through data of IntAct's records for PubMed 19632184.

B1: Kinesin-like protein KIF2C (Homo sapiens), Q99661 (parent)
chain: MAMDSSLQARLFPGLAIKIQRSNGLIHSANVRTVNLEKSCVSVEWAEGGATKGKEIDFDDVAAINPELLQLLPLHPKDNLPLQENVTIQKQKRRSVNSKIPAPKESLRSRSTRMSTVSELRITAQENDMEVELPAAANSRKQFSVPPAPTRPSCPAVAEIPLRMVSEEMEEQVHSIRGSSSANPVNSVRRKSCLVKEVEKMKNKREEKKAQNSEMRMKRAQEYDSSFPNWEFARMIKEFRATLECHPLTMTDPIEEHRICVCVRKRPLNKQELAKKEIDVISIPSKCLLLVHEPKLKVDLTKYLENQAFCFDFAFDETASNEVVYRFTARPLVQTIFEGGKATCFAYGQTGSGKTHTMGGDLSGKAQNASKGIYAMASRDVFLLKNQPCYRKLGLEVYVTFFEIYNGKLFDLLNKKAKLRVLEDGKQQVQVVGLQEHLVNSADDVIKMIDMGSACRTSGQTFANSNSSRSHACFQIILRAKGRMHGKFSLVDLAGNERGADTSSADRQTRMEGAEINKSLLALKECIRALGQNKAHTPFRESKLTQVLRDSFIGENSRTCMIATISPGISSCEYTLNTLRYADRVKELSPHSGPSGEQLIQMETEEMEACSNGALIPGNLSKEEEELSSQMSSFNEAMTQIRELEEKAMEELKEIIQQGPDWLELSEMTEQPDYDLETFVNKAESALAQQAKHFSALRDVIKALRLAMQLEEQASRQISSKKRPQ

In the assay the parent is B1. To be noted: with mare1_human MAPRE1, Q15691.
mare1_human MAPRE1, Q15691, sequence (Q15691 whole entry): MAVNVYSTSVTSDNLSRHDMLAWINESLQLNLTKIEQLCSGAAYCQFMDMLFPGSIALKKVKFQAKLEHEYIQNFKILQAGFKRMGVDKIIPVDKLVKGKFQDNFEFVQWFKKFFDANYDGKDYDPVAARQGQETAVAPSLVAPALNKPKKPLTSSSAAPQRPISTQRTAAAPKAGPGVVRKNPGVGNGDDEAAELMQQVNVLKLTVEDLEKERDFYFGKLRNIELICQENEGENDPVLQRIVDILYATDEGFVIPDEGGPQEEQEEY
In the case of I100N;P101N, the “effect of a mutation on the interaction” value was “decreasing interaction”.
